Among the data in patent US8815528B2, “Methods and systems for detecting MHC class I binding peptides” (Beckman Coulter, Inc., priority 2002, dated 2014) are Kd and Fluorescence units (FU) values, retold here.

The target in assay [1] is STREPTACTIN® (mutated streptavidin molecule) (Streptomyces avidinii, UniProt P22629, E68V/S69T/V71R). Particulars: biotin-binding site of STREPTACTIN; read-out: binding affinity (Kd); cited from earlier work.
The target of assay [2] is HLA-A2m monomer in ternary complex with binding peptide Mart-1 26-35L (human). Briefly: fluorimetric plate assay, avidin-coated plate, 40 min at room temperature; 1 µg/ml antibody, 0.5 µg/ml monomer.
Assay [3] has the same target. Briefly: fluorimetric plate assay, avidin-coated plate, 40 min at room temperature; 0.5 µg/ml antibody, 0.5 µg/ml monomer.

pKd: −log10 of the molar value.

STREPTACTIN® (mutated streptavidin molecule), sequence (P22629 38-163 E68V/S69T/V71R): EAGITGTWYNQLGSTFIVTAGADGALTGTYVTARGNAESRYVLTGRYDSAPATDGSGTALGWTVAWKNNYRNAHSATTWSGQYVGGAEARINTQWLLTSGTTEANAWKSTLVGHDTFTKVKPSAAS

Turning to “short peptide sequence binding the biotin-binding site of a mutated streptavidin molecule (STREPTACTIN) [streptagII]”, in assay [1], the negative-log Kd (pKd) is around 6.00.

With “Anti-HLA-class I monoclonal antibody conjugated to FITC (clone: B9.12.1)”, the Fluorescence units (FU) in assay [2] is 600 FU; in assay [3] it was 300 FU.
